Target: Peroxisome proliferator-activated receptor alpha (PPARα), wild type, FLAG-tagged (human) (UniProt Q07869)
UniProt Q07869, sequence (Q07869 whole entry): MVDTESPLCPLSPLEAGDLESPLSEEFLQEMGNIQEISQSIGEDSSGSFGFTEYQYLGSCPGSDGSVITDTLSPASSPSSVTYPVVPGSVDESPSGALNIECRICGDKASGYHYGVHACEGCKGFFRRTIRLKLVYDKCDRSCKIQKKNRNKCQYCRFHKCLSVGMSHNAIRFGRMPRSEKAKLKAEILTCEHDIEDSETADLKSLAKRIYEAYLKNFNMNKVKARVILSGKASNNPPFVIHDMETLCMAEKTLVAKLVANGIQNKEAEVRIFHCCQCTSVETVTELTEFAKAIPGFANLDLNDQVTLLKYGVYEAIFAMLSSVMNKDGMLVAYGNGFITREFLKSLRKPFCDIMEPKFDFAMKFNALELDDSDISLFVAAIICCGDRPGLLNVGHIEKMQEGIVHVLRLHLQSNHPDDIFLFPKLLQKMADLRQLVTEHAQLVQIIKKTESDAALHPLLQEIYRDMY

Question: With “C-terminal binding protein 2 (CtBP2), wild type, HA-tagged (from UniProt P56545 1-445) (natural protein)” as the substance, how does the PPRE-driven luciferase reporter in HEK293 cells activated by ectopic PPARα; reduction by expression of CtBP2 read?
Answer: 53%
